The source of these data is patent publication US20240207312A1.

Experiment [1] concerns the target human T-cell receptor beta chain with variable region Vbeta 7.1 (H. sapiens rearranged TCR Vbeta 7.1) (H. sapiens). Kind of experiment: cell-based or functional assay.
The target in experiment [2] is T-cell surface glycoprotein CD4 [Homo sapiens] (Homo sapiens) (UniProt P01730). Kind of experiment: cell-based or functional assay.

Sequence of human T-cell receptor beta chain with variable region Vbeta 7.1 (H. sapiens rearranged TCR Vbeta 7.1) (H. sapiens) (A0A577 whole entry, form in doubt): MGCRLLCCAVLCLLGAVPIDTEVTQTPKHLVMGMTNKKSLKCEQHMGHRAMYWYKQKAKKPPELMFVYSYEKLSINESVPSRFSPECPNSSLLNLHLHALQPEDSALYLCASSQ

“CART20 anti-CD20 chimeric antigen receptor (scFv of anti-CD20 monoclonal antibody Leu16 in the third-generation CAR backbone), expressed on transduced human T cells” gave a TCR Vβ7.1-positive cells remaining in the control culture (flow cytometry) in experiment [1] of 1.2%. This substance yielded a CD4-positive cells remaining in the control culture (flow cytometry) in experiment [2] of 45%.
